Measured values: patent EP4591887A1, “GPC3 ANTIBODY-DRUG CONJUGATE AND USE THEREOF” (priority 2022, dated 2024)

Assays:
human GPC3 (Glypican-3) [1] = target: T1, human GPC3 (Glypican-3) (human, UniProt P51654 25-580); assay: cell-based or functional assay
human GPC3 (Glypican-3) [2] = target: T1, human GPC3 (Glypican-3); assay: FACS on HepG2 cells
human GPC3 (Glypican-3) [3] = target: T1, human GPC3 (Glypican-3); assay: cell-based or functional assay; remark: listed apart in the source
human GPC3 (Glypican-3) [4] = target: T1, human GPC3 (Glypican-3); assay: FACS on HepG2 cells, top of the fitted fluorescence curve
human GPC3 (Glypican-3) [5] = target: T1, human GPC3 (Glypican-3); assay: FACS on Huh-7 cells
human GPC3 (Glypican-3) [6] = target: T1, human GPC3 (Glypican-3); assay: cell-based or functional assay; remark: listed apart in the source
human GPC3 (Glypican-3) [7] = target: T1, human GPC3 (Glypican-3); assay: FACS on CHO-K1 cells overexpressing human GPC3 (GPC3-CHO-K1)
human GPC3 (Glypican-3) [8] = target: T1, human GPC3 (Glypican-3); assay: FACS on HepG2 cells; remark: listed apart in the source

Binder	EC50 value of cytotoxicity, HepG2 cells (96 h, PrestoBlue) (human GPC3 (Glypican-3) [1]) [µg/mL]	EC50 value of cytotoxicity, Huh7 cells (96 h, PrestoBlue) (human GPC3 (Glypican-3) [1]) [µg/mL]	EC50 (human GPC3 (Glypican-3) [2]) [µg/mL]	Percentage reduction of GPC3 on cell surface (%), Huh7 cells, 2 h at 37°C against ice, FACS (human GPC3 (Glypican-3) [3]) [%]	Top (human GPC3 (Glypican-3) [4])	EC50 (human GPC3 (Glypican-3) [5]) [nM]	internalization on HepG2 cells (pHAb dye-labelled anti-hIgG secondary antibody, 48 h): EC50 (human GPC3 (Glypican-3) [6]) [µg/mL]	internalization on HepG2 cells (pHAb dye-labelled anti-hIgG secondary antibody, 48 h): Top (human GPC3 (Glypican-3) [6])	EC50 (human GPC3 (Glypican-3) [7]) [nM]	EC50 (human GPC3 (Glypican-3) [8]) [nM]
Hu 52H5D3B8-8-ZLA (antibody, human IgG1, kappa, V domains shown, ZLA linker-payload on cysteine thiols freed by TCEP reduction of disulfide bonds; positions not given, Constant regions as for Hu 52H5D3B8-8; also called Hu 52H5D3B8-8 ADC; Anti-GPC3-ZLA) VH: EVQLVQSGAEVKKPGASVKVSCKASGYTFTDYEMHWVRQAPGQGLEWMGAIHPGSGGTAYNQKFKGRVTMTADKSISTAYMELSRLRSDDTAVYYCTRFYSYAYWGQGTLVTVSS VL: DVVMTQTPLSLSVTPGQPASISCRSSQSLVHSNGNTYLQWYLQKPGQSPQLLIYKVSNRFSGVPDRFSGSGSGTDFTLKISRVEAEDVGVYFCSQSIHVPYTFGGGTKVEIKR	0.0391	0.00352	0.0569	64.3	69100	–	–	–	–	–
Y035 CDRs with Hu 52H5D3B8-7 FRs (antibody, V domains shown, built here from the pieces; detected with anti-human IgG) VH: EVQLVQSGAEVKKPGASVKVSCKASGYTFTDYEMHWVRQAPGQGLEWMGAIHPGSGDTAYNQRFKGRVTMTADKSISTAYMELSRLRSDDTAVYYCTRFYSYAYWGQGTLVTVSS VL: DVVMTQTPLSLSVTPGQPASISCRSSQSLVHSNGNTYLQWYLQKPGQSPQLLIYKVSNRFSGVPDRFSGSGSGTDFTLKISRVEAEDVGVYYCSQSIYVPYTFGGGTKVEIK	–	–	–	–	–	0.667	1.11	52200	0.907	0.611
Hu 52H5D3B8-8-L1-D1 (antibody, human IgG1, kappa, V domains shown, MC-vc-PAB-MMAE (L1-D1) on cysteine thiols freed by TCEP reduction of disulfide bonds; positions not given) VH: EVQLVQSGAEVKKPGASVKVSCKASGYTFTDYEMHWVRQAPGQGLEWMGAIHPGSGGTAYNQKFKGRVTMTADKSISTAYMELSRLRSDDTAVYYCTRFYSYAYWGQGTLVTVSS VL: DVVMTQTPLSLSVTPGQPASISCRSSQSLVHSNGNTYLQWYLQKPGQSPQLLIYKVSNRFSGVPDRFSGSGSGTDFTLKISRVEAEDVGVYFCSQSIHVPYTFGGGTKVEIKR	0.0409	0.038	–	66.5	–	–	–	–	–	–
Hu 52H5D3B8-7 (antibody, human IgG1, kappa, V domains shown, also called humanized GPC3 antibody Hu 52H5D3B8-7) VH: EVQLVQSGAEVKKPGASVKVSCKASGYTFTDYEMHWVRQAPGQGLEWMGAIHPGSGGTAYNQKFKGRVTMTADKSISTAYMELSRLRSDDTAVYYCTRFYSYAYWGQGTLVTVSS VL: DVVMTQTPLSLSVTPGQPASISCRSSQSLVHSNGNTYLQWYLQKPGQSPQLLIYKVSNRFSGVPDRFSGSGSGTDFTLKISRVEAEDVGVYYCSQSIHVPYTFGGGTKVEIKR	–	–	–	64.4	–	0.464	0.72	58600	0.446	0.405
GC33 antibody (Chugai Pharmaceutical) (antibody, V domains shown, Control antibody, prepared as in US 7919086 B2; Whole antibody; Detected with anti-human IgG) VH: QVQLVQSGAEVKKPGASVKVSCKASGYTFTDYEMHWVRQAPGQGLEWMGALDPKTGDTAYSQKFKGRVTLTADKSTSTAYMELSSLTSEDTAVYYCTRFYSYTYWGQGTLVTVSS VL: DVVMTQSPLSLPVTPGEPASISCRSSQSLVHSNGNTYLHWYLQKPGQSPQLLIYKVSNRFSGVPDRFSGSGSGTDFTLKISRVEAEDVGVYYCSQNTHVPPTFGQGTKLEIK	–	–	0.269	60	64100	0.953	–	–	0.956	0.745
GC33-ZLA (antibody, V domains shown, ZLA linker-payload on cysteine thiols of the antibody freed by TCEP reduction of disulfide bonds; positions not given, Whole antibody; also called GC33 ADC; Anti-GPC3-ZLA) VH: QVQLVQSGAEVKKPGASVKVSCKASGYTFTDYEMHWVRQAPGQGLEWMGALDPKTGDTAYSQKFKGRVTLTADKSTSTAYMELSSLTSEDTAVYYCTRFYSYTYWGQGTLVTVSS VL: DVVMTQSPLSLPVTPGEPASISCRSSQSLVHSNGNTYLHWYLQKPGQSPQLLIYKVSNRFSGVPDRFSGSGSGTDFTLKISRVEAEDVGVYYCSQNTHVPPTFGQGTKLEIK	0.0892	0.0148	0.143	59	68000	–	–	–	–	–
GC33-L4-D4 (antibody, V domains shown, MC-MMAF (L4-D4) on cysteine thiols of the antibody freed by TCEP reduction of disulfide bonds; positions not given, Whole antibody; also called GC33 ADC; Anti-GPC3-L4-D4) VH: QVQLVQSGAEVKKPGASVKVSCKASGYTFTDYEMHWVRQAPGQGLEWMGALDPKTGDTAYSQKFKGRVTLTADKSTSTAYMELSSLTSEDTAVYYCTRFYSYTYWGQGTLVTVSS VL: DVVMTQSPLSLPVTPGEPASISCRSSQSLVHSNGNTYLHWYLQKPGQSPQLLIYKVSNRFSGVPDRFSGSGSGTDFTLKISRVEAEDVGVYYCSQNTHVPPTFGQGTKLEIK	–	0.00882	0.112	61.3	60200	–	–	–	–	–
GC33-L3-D3 (antibody, V domains shown, MA-PEG4-VC-PAB-DMEA-Duocarmycin SA (L3-D3) on cysteine thiols of the antibody freed by TCEP reduction of disulfide bonds; positions not given) VH: QVQLVQSGAEVKKPGASVKVSCKASGYTFTDYEMHWVRQAPGQGLEWMGALDPKTGDTAYSQKFKGRVTLTADKSTSTAYMELSSLTSEDTAVYYCTRFYSYTYWGQGTLVTVSS VL: DVVMTQSPLSLPVTPGEPASISCRSSQSLVHSNGNTYLHWYLQKPGQSPQLLIYKVSNRFSGVPDRFSGSGSGTDFTLKISRVEAEDVGVYYCSQNTHVPPTFGQGTKLEIK	–	0.0694	–	59.9	–	–	–	–	–	–
